Assay results published in IntAct's records for PubMed 26068852.

B1: TRAF-interacting protein with FHA domain-containing protein A (Homo sapiens), Q96CG3 (parent)
chain: MTSFEDADTEETVTCLQMTVYHPGQLQCGIFQSISFNREKLPSSEVVKFGRNSNICHYTFQDKQVSRVQFSLQLFKKFNSSVLSFEIKNMSKKTNLIVDSRELGYLNKMDLPYRCMVRFGEYQFLMEKEDGESLEFFETQFILSPRSLLQENNWPPHRPIPEYGTYSLCSSQSSSPTEMDENES
partner: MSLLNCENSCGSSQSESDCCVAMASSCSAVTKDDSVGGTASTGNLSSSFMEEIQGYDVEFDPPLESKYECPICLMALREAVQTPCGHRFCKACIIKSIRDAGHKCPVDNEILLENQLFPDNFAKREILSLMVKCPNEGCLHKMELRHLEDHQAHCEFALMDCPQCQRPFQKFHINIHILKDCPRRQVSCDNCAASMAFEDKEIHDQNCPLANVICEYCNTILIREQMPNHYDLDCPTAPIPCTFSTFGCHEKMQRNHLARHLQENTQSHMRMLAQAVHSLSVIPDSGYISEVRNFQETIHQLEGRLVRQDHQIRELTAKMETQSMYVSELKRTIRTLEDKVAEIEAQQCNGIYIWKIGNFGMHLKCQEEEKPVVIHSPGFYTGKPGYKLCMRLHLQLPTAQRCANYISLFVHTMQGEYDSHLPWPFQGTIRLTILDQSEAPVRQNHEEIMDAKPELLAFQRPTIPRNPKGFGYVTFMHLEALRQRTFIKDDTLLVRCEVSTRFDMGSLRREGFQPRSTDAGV

Variants of: B1
Settings: with traf6_human TRAF6, Q9Y4K3

effect of a mutation on the interaction | Variant
disrupting interaction strength | T9A
disrupting interaction strength | G50E;S66A
disrupting interaction strength | E178A
